Experimental data: the supplement of paper PMC10567573
± gives the standard deviation.

Experiment: protein stability index of a GFP-peptide fusion (GPS, HEK-293T) (PSI 1-6); higher = more stable
Conditions: c terminus: a fixed tail appended
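Note: 24-mer peptide tiles fused after GFP, lentivirally expressed, FACS-sorted into six equal bins by GFP/DsRed ratio, decoded by Illumina sequencing, PSI is the read-weighted mean bin number.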

Q: With KFLVGTVGSDPLIKSDEECRDLVD [KLHL20] as the sequence, how does the protein stability index (treatment: DMSO) read?
A: 4.41 ± 0.78

Q: And the protein stability index (treatment: MLN4924 1 uM, 8 h)?
A: 4.14 ± 0.47

Q: Which protein stability index (treatment: DMSO) does the source give for VGITVLNLCALSVDRYRAVASWSR [EDNRA] here?
A: 2.86 ± 0.66

Q: And the protein stability index (treatment: MLN4924 1 uM, 8 h)?
A: 2.87 ± 0.6

Q: What does the source list for KSCYNGRFQLLYVACGMVHLLIPE [DNAAF3]?
A: protein stability index (treatment: DMSO): 3.37 ± 0.63; protein stability index (treatment: MLN4924 1 uM, 8 h): 2.77 ± 0.36

Q: Which protein stability index (treatment: DMSO) does the source give for GRKRRQTSMTDFYHSKRRLIFSKR [CDKN1A] here?
A: 3.35 ± 0.51

Q: And the protein stability index (treatment: MLN4924 1 uM, 8 h)?
A: 4.07 ± 0.38

Q: With RQIRTNWATRKPPAPKSTYECRCI [TIA1] as the sequence, how does the protein stability index (treatment: DMSO) read?
A: 2.56 ± 0.17

Q: What about the protein stability index (treatment: MLN4924 1 uM, 8 h) of the same sequence?
A: 2.85 ± 0.45

Q: For EEAVILLEDLERELDEPQHEMVAH [ZSCAN9], which protein stability index (treatment: DMSO) is on record?
A: 4.14 ± 0.6

Q: What about the protein stability index (treatment: MLN4924 1 uM, 8 h) of the same sequence?
A: 4.2 ± 0.34

Q: For LSFLDYRDLINCCYVSRRLSQLSS [FBXO3], which protein stability index (treatment: DMSO) is on record?
A: 2.59 ± 0.18

Q: And the protein stability index (treatment: MLN4924 1 uM, 8 h)?
A: 2.14 ± 0.48

Q: For KLTREQEELEEALEVERQENEQRR [MNAT1], which protein stability index (treatment: DMSO) is on record?
A: 5.59 ± 0.18

Q: What about the protein stability index (treatment: MLN4924 1 uM, 8 h) of the same sequence?
A: 5.45 ± 0.27

Q: With VEAVKNELRRQAPPPPPPSRGGPP [WASL] as the sequence, how does the protein stability index (treatment: DMSO) read?
A: 4.91 ± 0.29

Q: And the protein stability index (treatment: MLN4924 1 uM, 8 h)?
A: 4.92 ± 0.078

Q: For IVAGGYDERVLENVEHYQELKKMV [ALG2], which protein stability index (treatment: DMSO) is on record?
A: 3.14 ± 0.25

Q: And the protein stability index (treatment: MLN4924 1 uM, 8 h)?
A: 3.2 ± 0.11

Q: Which protein stability index (treatment: DMSO) does the source give for MQLPPALCARLAAGPGAAEPLPVE [ZNF511] here?
A: 3.97 ± 0.18

Q: What about the protein stability index (treatment: MLN4924 1 uM, 8 h) of the same sequence?
A: 3.86 ± 0.11

Q: Which results are given for PTGPRRGRDELGGGRRPGTSPALL [CDKN1A]?
A: protein stability index (treatment: DMSO): 4.624 ± 0.031; protein stability index (treatment: MLN4924 1 uM, 8 h): 4.53 ± 0.061

Q: For QQIHVVSQFKILVSLLENNIYVHD [VPS39], which protein stability index (treatment: DMSO) is on record?
A: 3.08 ± 0.059

Q: And the protein stability index (treatment: MLN4924 1 uM, 8 h)?
A: 3.23 ± 0.28

Q: With LLDIKTRLEQEIATYRSLLEGQDA [KRT13] as the sequence, how does the protein stability index (treatment: DMSO) read?
A: 3.45 ± 0.19

Q: And the protein stability index (treatment: MLN4924 1 uM, 8 h)?
A: 3.51 ± 0.26

Q: With SGITIPKPPKPPDKPLMPYMRYSR [SMARCE1] as the sequence, how does the protein stability index (treatment: DMSO) read?
A: 2.68 ± 0.25

Q: What about the protein stability index (treatment: MLN4924 1 uM, 8 h) of the same sequence?
A: 3.32 ± 0.23

Q: Which protein stability index (treatment: DMSO) does the source give for LFAPLKLQMEFKAVQQVQRLPFLS [POMP] here?
A: 2.51 ± 0.82

Q: And the protein stability index (treatment: MLN4924 1 uM, 8 h)?
A: 2.46 ± 0.75

Q: What does the source list for LEKGADVNRKSVKGNTALHDCAES [FEM1C]?
A: protein stability index (treatment: DMSO): 5.18 ± 0.29; protein stability index (treatment: MLN4924 1 uM, 8 h): 5.38 ± 0.28

Q: For DIRAKKIASIADVCESMKEQLLVL [HNF4A], which protein stability index (treatment: DMSO) is on record?
A: 2.5 ± 0.35

Q: What about the protein stability index (treatment: MLN4924 1 uM, 8 h) of the same sequence?
A: 2.26 ± 0.22

Q: What does the source list for AMAIINGSLYVFGGTTGYIYSTDL [KLHDC10]?
A: protein stability index (treatment: DMSO): 3.16 ± 0.2; protein stability index (treatment: MLN4924 1 uM, 8 h): 2.74 ± 0.33

Q: What does the source list for KLALDMEISAYRKLLQGEEERLKL [LMNB1]?
A: protein stability index (treatment: DMSO): 3.24 ± 0.23; protein stability index (treatment: MLN4924 1 uM, 8 h): 3.28 ± 0.36

Q: For DGLRLLGARARGVAMLGVFLVSAV [SOAT2], which protein stability index (treatment: DMSO) is on record?
A: 2.56 ± 0.53

Q: And the protein stability index (treatment: MLN4924 1 uM, 8 h)?
A: 2.49 ± 0.38

Q: For PPATLGEGSADTEDRKLPAPGADV [EHMT1], which protein stability index (treatment: DMSO) is on record?
A: 5.47 ± 0.3

Q: And the protein stability index (treatment: MLN4924 1 uM, 8 h)?
A: 5.58 ± 0.13

Q: With RLSVPRDSACDESSCIPKAFGNPK [IRX6] as the sequence, how does the protein stability index (treatment: DMSO) read?
A: 4.84 ± 0.18

Q: What about the protein stability index (treatment: MLN4924 1 uM, 8 h) of the same sequence?
A: 4.89 ± 0.19

Q: For SAPATAKENAAAPSPVRAPAPSPA [PALM], which protein stability index (treatment: DMSO) is on record?
A: 5.18 ± 0.21

Q: What about the protein stability index (treatment: MLN4924 1 uM, 8 h) of the same sequence?
A: 5.34 ± 0.17

Q: Which results are given for YRVWKKMLASVESVPFSFDPNTAA [TRIM35]?
A: protein stability index (treatment: DMSO): 2.06 ± 0.28; protein stability index (treatment: MLN4924 1 uM, 8 h): 2.3 ± 0.14

Q: What does the source list for SLVLPWSFPLEWAPQNLTRWTFEK [TOR1AIP2]?
A: protein stability index (treatment: DMSO): 2.14 ± 0.44; protein stability index (treatment: MLN4924 1 uM, 8 h): 2.29 ± 0.32

Q: Which protein stability index (treatment: DMSO) does the source give for LGQDRQVPLWGQLLLFLVFVIVLF [EMD] here?
A: 2.83 ± 0.58

Q: What about the protein stability index (treatment: MLN4924 1 uM, 8 h) of the same sequence?
A: 2.79 ± 0.76

Q: Which results are given for RLRVELECEEGELSFYDAERHCHL [TRIM35]?
A: protein stability index (treatment: DMSO): 3.66 ± 0.17; protein stability index (treatment: MLN4924 1 uM, 8 h): 3.75 ± 0.075

Q: With MAPVMAHVDPEEPWSPCSARFITD [ADAMTS4] as the sequence, how does the protein stability index (treatment: DMSO) read?
A: 3.76 ± 0.4

Q: What about the protein stability index (treatment: MLN4924 1 uM, 8 h) of the same sequence?
A: 3.85 ± 0.37

Q: What does the source list for DSSHERTESQLTPCIRNVTSPTRQ [BTBD10]?
A: protein stability index (treatment: DMSO): 5.06 ± 0.15; protein stability index (treatment: MLN4924 1 uM, 8 h): 5.1 ± 0.12

Q: For HSAVARISRAQYNALTLTFQRAMH [STX11], which protein stability index (treatment: DMSO) is on record?
A: 2.08 ± 0.31

Q: What about the protein stability index (treatment: MLN4924 1 uM, 8 h) of the same sequence?
A: 2.14 ± 0.19

Q: Which results are given for SAAQTDPTTGYRRLLRFSSQIHNN [LOXL2]?
A: protein stability index (treatment: DMSO): 3.1 ± 0.2; protein stability index (treatment: MLN4924 1 uM, 8 h): 3.23 ± 0.17

Q: For LSLKRELSWYRGRRPRTAFTQNQI [HESX1], which protein stability index (treatment: DMSO) is on record?
A: 2.41 ± 0.27

Q: What about the protein stability index (treatment: MLN4924 1 uM, 8 h) of the same sequence?
A: 2.66 ± 0.14

Q: What does the source list for TASLIEDIDKKHLVLLRDGRTLIG [LSM1]?
A: protein stability index (treatment: DMSO): 2.83 ± 0.15; protein stability index (treatment: MLN4924 1 uM, 8 h): 2.62 ± 0.32

Q: For LGCYAVYSLLYLEHKGWYSWVLSM [CLPTM1], which protein stability index (treatment: DMSO) is on record?
A: 3.04 ± 0.42

Q: What about the protein stability index (treatment: MLN4924 1 uM, 8 h) of the same sequence?
A: 3.27 ± 0.65

Q: Which protein stability index (treatment: DMSO) does the source give for LKLQTKTIKVSYARPSSASIRDAN [ELAVL3] here?
A: 2.77 ± 0.37

Q: And the protein stability index (treatment: MLN4924 1 uM, 8 h)?
A: 2.91 ± 0.32

Q: With LPSERWNPTQNVRTILLSVISLLN [CDC34] as the sequence, how does the protein stability index (treatment: DMSO) read?
A: 3.53 ± 0.2

Q: And the protein stability index (treatment: MLN4924 1 uM, 8 h)?
A: 3.58 ± 0.33

Q: Which results are given for CLKVGMRREAVQRGRMPPTQPTHG [NR2F2]?
A: protein stability index (treatment: DMSO): 3.59 ± 0.27; protein stability index (treatment: MLN4924 1 uM, 8 h): 3.71 ± 0.32

Q: With MSEMAELSELYEESSDLQMDVMPG [EID1] as the sequence, how does the protein stability index (treatment: DMSO) read?
A: 5.43 ± 0.088

Q: What about the protein stability index (treatment: MLN4924 1 uM, 8 h) of the same sequence?
A: 5.25 ± 0.32

Q: Which protein stability index (treatment: DMSO) does the source give for KQLICPICLEMFTKPVVILPCQHN [TRIM63] here?
A: 2.97 ± 0.31

Q: What about the protein stability index (treatment: MLN4924 1 uM, 8 h) of the same sequence?
A: 3.01 ± 0.43

Q: Which protein stability index (treatment: DMSO) does the source give for KKKVGNYYTTPIYRFRMKCHLCVN [YJU2B] here?
A: 2.21 ± 0.33

Q: And the protein stability index (treatment: MLN4924 1 uM, 8 h)?
A: 2.19 ± 0.3

Q: What does the source list for KAYDHQTQELVAIKIIKNKKAFLN [DYRK1B]?
A: protein stability index (treatment: DMSO): 2.37 ± 0.22; protein stability index (treatment: MLN4924 1 uM, 8 h): 2.62 ± 0.25

Q: For NYFSAMYSSEDSTLASVPPAATFG [ELF3], which protein stability index (treatment: DMSO) is on record?
A: 3.06 ± 0.3

Q: And the protein stability index (treatment: MLN4924 1 uM, 8 h)?
A: 3.17 ± 0.43

Q: Which protein stability index (treatment: DMSO) does the source give for YKRQEESGAAASLNVDAAVQQWLQ [CHIT1] here?
A: 4.22 ± 0.086

Q: What about the protein stability index (treatment: MLN4924 1 uM, 8 h) of the same sequence?
A: 4.1 ± 0.094

Q: For AYDFPSPEWDTVTPEAKDLINKML [CAMK2A], which protein stability index (treatment: DMSO) is on record?
A: 3.24 ± 0.24

Q: And the protein stability index (treatment: MLN4924 1 uM, 8 h)?
A: 3.58 ± 0.34
